Tests used:
[1] = Example 9: screening of rhamnosidase variants for derhamnosylation of saponins in crude bark extract; assay type: biochemical, Quillaja saponaria
Protocol: Libraries of genetic variants encoding mutations in the wild type Kribbella flavida rhamnosidase (SEQ ID No. 1017) were prepared using molecular biology techniques, enzymes were prepared linked to a C-terminally located His-tag. Single monoclonal colonies were grown in 400 ul of expression medium and protein expressed. Cell pellets were lysed in 200 ul of the relevant buffer (Table 17).
Lysate was diluted appropriately in the relevant buffer to allow a lysate loading of the indicated % loading (1% loading corresponds to use of 2 ul original lysate in a 200 ul reaction).
Crude bark extract (CBE) obtained by aqueous extraction of Quillaja saponaria and containing at least 2.80 mg/ml QS-21 (by HPLC-UV) was adjusted to pH 6 by dropwise addition of 2M NaOH with stirring. The relevant concentration of the relevant glucosidase was added. The appropriate relative volume of pH 6 CBE (160 ul (for 80%) or 150 ul (for 75%)) was added to each well of the reaction plate. The reaction plate was sealed and incubated at the relevant temperature and time.
The reaction plate was quenched by adding 200 uL of MeCN (2% AcOH, 1 mg/mL hexanophenone) to each well of the plates. The quenched reaction plate was re-sealed and incubated at 20 deg C. with shaking for 10 min. The reaction plate was then centrifuged (10 min, 4 degC).
200 uL was transferred from each well of the quenched plate to the corresponding wells of a fresh 96 well plate and sealed. The plate was analysed by UV HPLC with the method described in Example 4.
Three key peaks of interest are apparent using this chromatography: Left Peak (retention time approximately 2.30-2.35 min) comprising mainly QS-17 family components; Middle Peak (retention time approximately 2.37-2.42 min) comprising mainly QS-18 family components and desglucosyl-QS-17 family components; and Right Peak (retention time approximately 2.44-2.50 min) comprising mainly QS-21 family components. Peak identity was supported by MS/MS.
Enzyme activity is calculated as the % conversion of the Left Peak present in the crude bark extract: […]

[2] = Example 10: derhamnosylation of saponins in crude bark extract (50%) using WT and engineered rhamnosidases R1 to R5; assay type: biochemical, Quillaja saponaria; details: 7 h, 50% CBE, 35 degC; for % Right Peak: starting CBE 26; for % Left Peak: starting CBE 30; for % Middle Peak: starting CBE 44
Protocol: Lyophilised powders from clarified cell lysate expressing glucosidases (from Example 8 WT glucosidase and engineered glucosidase polypeptides G1 to G5) and rhamnosidases (from Example 9 WT rhamnosidase and engineered rhamnosidase polypeptides R1 to R5) were dissolved in 200 mM sodium acetate aqueous solution at pH 5.8 to prepare the enzyme solutions at 4 fold the final reaction concentration as shown in Tables 19 and 20.
Each rhamnosidase solution was combined with an equal volume of 200 mM sodium acetate aqueous solution at pH 5.8 and separately with an equal volume of 200 mM sodium acetate aqueous solution at pH 5.8 containing 2 mg/ml glucosidase G5. This is a sufficient loading of glucosidase to effect complete hydrolysis of the relevant glucose moiety within 4 hours.
CBE was adjusted to pH of 6.0 to 6.2 with 2M sodium hydroxide and an equal volume added to the enzyme solution to prepare the reaction mix (i.e. 50% CBE concentration in reaction mix) and the concentration of glucosidase and/or rhamnosidase is shown in Tables 19 and 20. The reaction mix was heated to 35 degC for the time indicated in Tables 19 and 20, after which the reaction was quenched by addition of an equal volume of MeCN containing 2% acetic acid and shaken at room temperature for 10 mins prior to centrifugation (10 min, 4 degC) to remove particulates. Samples were analysed by UV HPLC using method of Experiment 4-4.
The change in composition of the Left, Middle and Right peaks is shown in Tables 19 and 20. The composition changes by the action of the enzymes depending on the presence or absence of the partner enzyme. The extent of reaction is proportional to the enzyme concentration and the reaction time under these conditions. The tables show data for enzyme concentrations and the reaction times providing for equivalent extents of reaction. The improvement resulting from the mutations introduced for each variant is equal to the fold change in enzyme concentration×time (i.e. fold improvement=(enzyme concentration×time) for preceding variant÷(enzyme concentration×time) for later variant). A cumulative fold improvement over the original enzyme variant is calculated by the product of the individual fold improvements.

[3] = rhamnosidase 1.25 mg/ml + glucosidase G5 0.5 mg/ml
[4] = rhamnosidase 1.25 mg/ml, no glucosidase

B1: Variant R2: engineered rhamnosidase polypeptide, variant of Kribbella flavida rhamnosidase SEQ ID No. 1017 (protein)
chain: MSFPAAPARLRFEHRTDPGPVLGIGTATPRLSWQVPTAPDDYRQAGYEVEIARGDAAPEQYTVDSADQVLVPWPGTPLAARESATVRVRVRGDGDWSQWSDPATVEAGLLSADDWTARFVSPRENAGHEAPAPLIGGVIDLPPDIAQARLYATAHGIYEPTLNGTRVGDEQLAPGWTAYEQRLRYQTYDVTDLVAPGENRLELLVGNGWYRGRMGFHGGHSLYGDRLAVLAQLEVTTATGEVKVLASDGTWTTRETNVLADDLYDGQHVDLRRTLGEPGPVDVLDADLSLLVAPDGPPVRVTDVLPAKAVTTSPAGKTLVDFGQNVVGRLRLRVRGGAAGDEIVLRHAEVLEDGELGVRPLRTAKATDSFVLAGPDEVTLEPTLTFHGFRYAEITGVPDLRAEDVEAVVVGSDLRRTGWFESSHPLLDRFHENVVWGMRGNFLDVPTDCPQRDERLGWTGDIQVFSPTASFLFDTAGFLTNWLADLIAEQHKDGSVPFVVPDVLRQPGPATAAWGDAATIVPWVLYERTGDAGLLARQLPSMRAWVDRMAGLAGDDLLWVGGFQFGDWLDPTAPPDDPFRAKADPDVLATAHLARSAEVVALAAEVVGAGELAREYAELAARVRQAFAAEYTTGSGRVLSDAATNYALALQWALLPTEAQRKRAGERLADLVRTAGFRISTGFVGTPLMADALADSGHPDLAYRLLLETGCPSWLYAVTMDATTVWERWDSMLPDGSINPGQMTSFNHYALGAVADWMHRRVAGLAPGDPGYRRIVVDPLFTAHLTKASARHLTPYGEAAVAWSRSGGRVRLEVTVPVGARARVAVPGESAPVEVGHGTHEWTADDVYGETPPLPADATIRQLIDHEPSWTTLAAAATRTGIVADDAELAGRLERYLDHPATELVDAVSPRGFSPSAEALHAELDSVLGR
modifications: Seq ID No. 1017 with mutations A143P, L214M, K219G, Q921H
With B1 the “% conversion (Right peak/Left Peak) (−neg control)” value ([1]; R2 round: 20 deg C, 20 h, lysate 1.25% v/v, CBE 80% v/v, 100 mM Potassium phosphate pH 6) was 1.09%, the “Cumulative FIOP from WT” value ([1]; R2 round: 20 deg C, 20 h, lysate 1.25% v/v, CBE 80% v/v, 100 mM Potassium phosphate pH 6, estimate) was 2.9 and the “Left Peak %” value ([1]; R2 round: 20 deg C, 20 h, lysate 1.25% v/v, CBE 80% v/v, 100 mM Potassium phosphate pH 6, negative control 23.63) was 22.76%. For the same molecule, the “Right Peak %” value ([1]; R2 round: 20 deg C, 20 h, lysate 1.25% v/v, CBE 80% v/v, 100 mM Potassium phosphate pH 6, negative control 26.10) was 26.27%, the “Middle Peak %” value ([1]; R2 round: 20 deg C, 20 h, lysate 1.25% v/v, CBE 80% v/v, 100 mM Potassium phosphate pH 6, negative control 50.27) was 50.97% and the “% conversion (Right peak/Left Peak)” value ([1]; R2 round: 20 deg C, 20 h, lysate 1.25% v/v, CBE 80% v/v, 100 mM Potassium phosphate pH 6, negative control 52.49) was 53.57%. For the same molecule, the “FIOP (% area increase variant/pos control)” value ([1]; R2 round: 20 deg C, 20 h, lysate 1.25% v/v, CBE 80% v/v, 100 mM Potassium phosphate pH 6, positive control WT) was 2.9, the “% conversion (Right peak/Left Peak) (−neg control)” value ([1]; R3 round: 35 deg C, 18 h, lysate 0.4% v/v, CBE 75% v/v, 100 mM Sodium acetate pH 5.8) was 3.99% and the “Right Peak %” value ([1]; R3 round: 35 deg C, 18 h, lysate 0.4% v/v, CBE 75% v/v, 100 mM Sodium acetate pH 5.8, negative control 26.60) was 27.59%. The “Left Peak %” value ([1]; R3 round: 35 deg C, 18 h, lysate 0.4% v/v, CBE 75% v/v, 100 mM Sodium acetate pH 5.8, negative control 28.91) was 25.57%, the “Middle Peak %” value ([1]; R3 round: 35 deg C, 18 h, lysate 0.4% v/v, CBE 75% v/v, 100 mM Sodium acetate pH 5.8, negative control 44.49) was 46.84% and the “% conversion (Right peak/Left Peak)” value ([1]; R3 round: 35 deg C, 18 h, lysate 0.4% v/v, CBE 75% v/v, 100 mM Sodium acetate pH 5.8, negative control 47.91) was 51.90%. For the same molecule, the “% change in Left Peak” value [2, 3] was −40%, the “% change in Middle Peak” value [2, 3] was −96% and the “% change in Right Peak” value [2, 3] was 309%. For the same molecule, the “Cumulative Fold improvement in primary enzyme loading × time” value [2, 3] was 4, the “Fold improvement in primary enzyme loading × time” value [2, 3] was 2.0 and the “% Right Peak” value [2, 3] was 80%. For the same molecule, the “% Left Peak” value [2, 3] was 18%, the “% Middle Peak” value [2, 3] was 2% and the “% change in Left Peak” value [2, 4] was −39%. For the same molecule, the “% change in Middle Peak” value [2, 4] was 19%, the “% change in Right Peak” value [2, 4] was 113% and the “Cumulative Fold improvement in primary enzyme loading × time” value [2, 4] was 4. For the same molecule, the “Fold improvement in primary enzyme loading × time” value [2, 4] was 2.0, the “% Right Peak” value [2, 4] was 29% and the “% Left Peak” value [2, 4] was 18%. For the same molecule, the “% Middle Peak” value [2, 4] was 52%.

From patent US20240026407A1, “MODIFICATION OF SAPONINS” (GLAXOSMITHKLINE BIOLOGICALS SA, priority 2020, published 2024)
